From the supplement of paper PMC10724198
± gives the standard deviation of the averaged measurements.

What was measured:
Saccharomyces cerevisiae [1] = assay: protein stability index of tFT-peptide fusion (C-terminal peptide) (PSI (0-1 scale)); higher = more stable (slower turnover)
Method: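 MPS profiling in S. cerevisiae of the tFT-X12 degron library: putative degron peptides plus stable controls, 12 aa, fused to the C-terminus of a sfGFP-mCherry timer. Cells are FACS-sorted into 8 mCherry/sfGFP bins and deep-sequenced. PSI runs from 0 (unstable) to 1 (stable). Backgrounds are wild type, das1Δ and doa10Δ at 30 °C, and wild type, das1Δ, cdc34-1 and cdc53-1 at 37 °C; 2-3 technical replicates each.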

Saccharomyces cerevisiae [2] = assay: as above; conditions: genetic background: wild type; temperature: 30 C
[3] = genetic background: cdc34-1, temperature: 37 C
[4] = genetic background: cdc53-1, temperature: 37 C
[5] = genetic background: das1 deletion, temperature: 30 C
[6] = genetic background: das1 deletion, temperature: 37 C
[7] = genetic background: doa10 deletion, temperature: 30 C
[8] = genetic background: wild type, temperature: 30 C
[9] = genetic background: wild type, temperature: 37 C
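Further: PSI is a weighted mean of sequencing reads over stability bins, variants kept only with over 10 reads, mCherry proximal and sfGFP distal, peptide attached via GGGS linker.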

Row | Sequence | protein stability index (Saccharomyces cerevisiae [1]; [3]) | protein stability index (Saccharomyces cerevisiae [1]; [4]) | protein stability index (Saccharomyces cerevisiae [1]; [5]) | protein stability index (Saccharomyces cerevisiae [1]; [6]) | protein stability index (Saccharomyces cerevisiae [1]; [7]) | protein stability index (Saccharomyces cerevisiae [1]; [8]) | protein stability index (Saccharomyces cerevisiae [1]; [9]) | protein stability index (Saccharomyces cerevisiae [2])
1 | GILVVAASICYV | 0.451 ± 0.021 | 0.48 ± 0.02 | 0.355 ± 0.031 | 0.52243 ± 0.00038 | 0.342 ± 0.0088 | 0.359 ± 0.017 | 0.488 ± 0.015 | 0.447 ± 0.018
2 | GLLLVWAALGFV | 0.343 ± 0.033 | 0.4444 ± 0.0018 | 0.28 ± 0.019 | 0.458 ± 0.006 | 0.221 ± 0.007 | 0.251 ± 0.043 | 0.439 ± 0.0095 | 0.3431 ± 0.00066
3 | VGFYGRWVCVAC | 0.366 ± 0.053 | 0.462 ± 0.024 | 0.287 ± 0.015 | 0.435 ± 0.0074 | 0.236 ± 0.011 | 0.265 ± 0.019 | 0.384 ± 0.0068 | 0.29 ± 0.04
4 | FCSFSWFLFLRS | 0.211 ± 0.0051 | 0.123 ± 0.023 | 0.329 ± 0.02 | 0.359 ± 0.0085 | 0.599 ± 0.01 | 0.337 ± 0.016 | 0.312 ± 0.022 | 0.405 ± 0.034
5 | WVFVVWFVFVVG | 0.242 ± 0.022 | 0.3112 ± 0.00051 | 0.241 ± 0.022 | 0.374 ± 0.021 | 0.202 ± 0.013 | 0.215 ± 0.02 | 0.356 ± 0.03 | 0.322 ± 0.016
6 | RDYIAAKLVVCG | 0.4103 ± 0.0032 | 0.425 ± 0.029 | 0.304 ± 0.03 | 0.488 ± 0.0021 | 0.267 ± 0.0034 | 0.318 ± 0.027 | 0.4612 ± 0.0016 | 0.35 ± 0.091
7 | VMFCRFPLRFGC | 0.662 ± 0.031 | 0.726 ± 0.03 | 0.631 ± 0.0071 | 0.7445 ± 0.0057 | 0.3191 ± 0.0022 | 0.348 ± 0.023 | 0.561 ± 0.021 | 0.475 ± 0.026
8 | RSIAFLLGQFLS | 0.6679 ± 0.0052 | 0.745 ± 0.016 | 0.68 ± 0.027 | 0.74305 ± 0.00053 | 0.372 ± 0.019 | 0.395 ± 0.047 | 0.637 ± 0.016 | 0.467 ± 0.013
9 | LPPFLSSLPSSP | 0.715 ± 0.027 | 0.769 ± 0.016 | 0.66 ± 0.017 | 0.7635 ± 0.0039 | 0.668 ± 0.031 | 0.663 ± 0.011 | 0.732 ± 0.013 | 0.704 ± 0.019
10 | WFLFVLCAWGFF | 0.295 ± 0.026 | 0.339 ± 0.0033 | 0.263 ± 0.013 | 0.374 ± 0.039 | 0.263 ± 0.014 | 0.241 ± 0.012 | 0.3042 ± 0.00084 | 0.135 ± 0.0012
11 | PFLCLPFLLVSR | 0.38 ± 0.022 | 0.4056 ± 0.0025 | 0.35 ± 0.029 | 0.49 ± 0.0032 | 0.467 ± 0.017 | 0.363 ± 0.027 | 0.47142 ± 0.0004 | 0.41 ± 0.034
12 | RSKLGVLVILWF | 0.288 ± 0.02 | 0.391 ± 0.011 | 0.293 ± 0.031 | 0.466 ± 0.012 | 0.243 ± 0.016 | 0.273 ± 0.025 | 0.448 ± 0.0055 | 0.353 ± 0.037
13 | LLSFSQLGYFVL | 0.634 ± 0.056 | 0.716 ± 0.012 | 0.633 ± 0.034 | 0.738 ± 0.023 | 0.13 ± 0.0051 | 0.152 ± 0.039 | 0.335 ± 0.027 | 0.212 ± 0.04
14 | KKKEIIKIIKIN | 0.311 ± 0.033 | 0.643 ± 0.044 | 0.697 ± 0.065 | 0.72 ± 0.048 | 0.0624 ± 0.022 | 0.0729 ± 0.034 | 0.0954 ± 0.039 | 0.127 ± 0.013
15 | VFLLFFFGLFVF | 0.348 ± 0.02 | 0.385 ± 0.0091 | 0.295 ± 0.037 | 0.418 ± 0.025 | 0.356 ± 0.043 | 0.314 ± 0.007 | 0.414 ± 0.035 | 0.415 ± 0.041
16 | LLLALLFWPCPI | 0.5178 ± 0.0016 | 0.526 ± 0.0074 | 0.402 ± 0.028 | 0.559 ± 0.037 | 0.396 ± 0.024 | 0.39 ± 0.038 | 0.518 ± 0.021 | 0.473 ± 0.02
17 | PWFCYVQLVVPV | 0.226 ± 0.02 | 0.266 ± 0.0075 | 0.232 ± 0.035 | 0.349 ± 0.0058 | 0.188 ± 0.0072 | 0.221 ± 0.03 | 0.313 ± 0.0036 | 0.309 ± 0.0036
18 | SVKRVVPCLVSC | 0.442 ± 0.0081 | 0.468 ± 0.0077 | 0.332 ± 0.035 | 0.525 ± 0.0063 | 0.289 ± 0.0049 | 0.337 ± 0.022 | 0.486 ± 0.0031 | 0.45 ± 0.063
19 | REAFVVLAVFFH | 0.199 ± 0.0062 | 0.321 ± 0.054 | 0.226 ± 0.019 | 0.406 ± 0.02 | 0.193 ± 0.0039 | 0.199 ± 0.03 | 0.315 ± 0.05 | 0.328 ± 0.04
20 | FFSLMFVFLTVF | 0.113 ± 0.018 | 0.131 ± 0.043 | 0.201 ± 0.03 | 0.276 ± 0.015 | 0.192 ± 0.0063 | 0.164 ± 0.02 | 0.23 ± 0.012 | 0.278 ± 0.033
21 | WFFPVSPPVMAS | 0.181 ± 0.027 | 0.1945 ± 0.00051 | 0.202 ± 0.032 | 0.3 ± 0.013 | 0.175 ± 0.004 | 0.211 ± 0.026 | 0.265 ± 0.0075 | 0.288 ± 0.013
22 | LSLVYFAALFSF | 0.484 ± 0.042 | 0.529 ± 0.033 | 0.409 ± 0.019 | 0.53775 ± 0.00036 | 0.356 ± 0.025 | 0.377 ± 0.043 | 0.4858 ± 0.003 | 0.4709 ± 0.0037
23 | ISLSSLYVVMYV | 0.413 ± 0.0072 | 0.418 ± 0.041 | 0.227 ± 0.026 | 0.428 ± 0.011 | 0.178 ± 0.0094 | 0.195 ± 0.027 | 0.3919 ± 0.0016 | 0.291 ± 0.024
24 | FVMTYCLMSVSK | 0.0323 ± 0.018 | 0.0364 ± 0.002 | 0.0746 ± 0.02 | 0.0531 ± 0.038 | 0.063 ± 0.0057 | 0.07 ± 0.016 | 0.0478 ± 0.025 | 0.0465 ± 0.035
25 | GCGFSFFHIVVL | 0.111 ± 0.0053 | 0.113 ± 0.0037 | 0.147 ± 0.04 | 0.256 ± 0.024 | 0.416 ± 0.0071 | 0.152 ± 0.022 | 0.225 ± 0.0047 | 0.121 ± 0.0051
26 | CLFLNCRFYMFL | 0.951 ± 0.021 | 0.898 ± 0.065 | 0.808 ± 0.04 | 0.89 ± 0.024 | 0.788 ± 0.014 | 0.796 ± 0.036 | 0.905 ± 0.011 | 0.821 ± 0.035
27 | FNLTCLLISFFN | 0.593 ± 0.02 | 0.609 ± 0.063 | 0.453 ± 0.036 | 0.658 ± 0.0081 | 0.368 ± 0.005 | 0.417 ± 0.015 | 0.553 ± 0.028 | 0.519 ± 0.045
28 | AFRFFWFFFFTS | 0.536 ± 0.066 | 0.619 ± 0.042 | 0.466 ± 0.024 | 0.603 ± 0.035 | 0.446 ± 0.0062 | 0.426 ± 0.017 | 0.557 ± 0.018 | 0.445 ± 0.03
29 | IVRLGRWLGLSC | 0.657 ± 0.032 | 0.691 ± 0.025 | 0.613 ± 0.055 | 0.709 ± 0.013 | 0.215 ± 0.031 | 0.261 ± 0.028 | 0.494 ± 0.028 | 0.352 ± 0.052
30 | ASHLGLGCLVVC | 0.601 ± 0.089 | 0.571 ± 0.045 | 0.426 ± 0.018 | 0.604 ± 0.015 | 0.389 ± 0.028 | 0.408 ± 0.02 | 0.579 ± 0.021 | 0.491 ± 0.0059
